Experiment: soluble fraction after stress (log2 fold change); higher = more stays soluble; pooled small domains, quantitative proteomics
Conditions: stress: 75 degC
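Note: 20 min heating vs room temperature control held 20 min.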

Row | Sequence | soluble fraction (log2)
1 | HMLTGESDNVEKSINKLGTENLALADQTNMGFKGTFINSGHGMAIVVKTGMQTELGKIASMIQIA | 0.218
2 | HMLTGISALKPTEAFPDEIFYEIFEIEDNIERTQYIESLRNTARQLKRVTEFNNLYKSFVLDYAQRQKQ | -1.93
3 | HMLTKAEEQVMDYLWKLEKAFVKDILDEFPEPKPAYTTVSTMVRILEKKGMVGYTAYGKNHQYYPL | -1.97
4 | HMLTKSELVFDTLKKRIIDGELEPGTELVISRISEEFNVSTIPVREAIKTLASEGLVEMEPHKSAKVAE | -0.0052
5 | HMLTKSVLGNQIKVLRLEKGLSQEEFGAPVDLSRSAVSQIESGQMYPSLESIGKIVKYYSTSWDNLVG | -0.846
6 | HMLTLDEKRRLQIMRVQVALTSLGLYNGRVDGVLNAETKLGLEFFQDLKGLPKSGTMTTPTLNALGVPA | -2.43
7 | HMLTLSGPEHAVVRALWPEPELDFDVLIRKTGLPSAQLMTLAMQLEMKKIIRRLPGRRLALMDDIRR | -3.98
8 | HMLTRSTVNVETGTAAIGLGKLYGVYDMSRKGLKYSFSVDSDAMTKVMEMLLPLGIKSLTVEPPS | -1.55
9 | HMLTTADLMMVHANSNKAIDYIVTDDNTKLTVDEPVTAKWITTADSIYRAVAYYNKVGDGKAQIVSVGN | -0.0103
10 | HMLTYPEHVRLRMIELRKTRSLSQSEFGTYLGLSYQTISSLELGRHEWSLAHIQTALLRFELPPNYF | -4.27
11 | HMLVATFGPTTGWEGREIIWDVDRFILVGHGAVPAAGVLDYDRRGQLIWAQPELRAWVVEVDRWETG | -2.22
12 | HMLVMTDNVIKAINDLLNYEAAAGIKKKQRYTAYQIYKELSEQGVYHGSRRRMEEVVSKLRVERNQI | -2.79
13 | HMLVPWKSANLFKLVEPNFRLAERKIPMLPSADREKLQEIMSDMKDAIVDNDKMALMKLDEELTDFLFDFV | -1.49
14 | HMLVSPLDEIPGIGRNRKKTLLNHFGSAKTIEGASLEDLKKVDGISELIAKKIYNYFHLNKNF | -0.85
15 | HMLWTDTKYVTVPDFVGKEPKEIESSYLYNIEYHGEGTKVISQQPAAFSRTIEGGTVRLYLG | -0.0387
16 | HMLYGRRFQVEGLNLERYLRAAADSGIPLKGARRFGRTLTGVAAEEHMAALEALARQGGWLFTPLEAVGAN | -0.948
17 | HMLYKNIAKKLRFRINSDEFAIGDVLPTERQLMEEYQASRVSIRKAIDELVAIDLIEKKQGSGTYIKQKEV | -1.89
18 | HMMESLGIRLKRLRKDKGLTQVELGKLSGVTGVTIGYWEKDLNEPGSKALSKLAQALGTTESYLLYGVS | -1.21
19 | HMMNNKEIGTRIAVLRKGMGDSQAKLAERLDVSPQAVSKWETGQSLPDIGNLLKLSWLFRTSINHILEGS | -2.18
20 | HMNADAPWSPFSPGFTGPMNRPVIGLVTKADLANPQRISLVESWLVQAGAQKVFVTSALENTGVDEMFIFL | -0.152
21 | HMNADLDIQNVNGNTPLWEAVMRYRGDGFFIEQLLKNGANPDIKNNYGVSPKSLARTIANYDVRRFFN | -0.281
22 | HMNADSLIGENIRISERVSNMDQTGMAVVHGQEWTVRTRNDNEIIEPGEEAKILAISGVKLIVEK | -0.136
23 | HMNAESLIGDRAVVTVAIERNKRGRVDVTGQDWAATTRDGEEIKVGQEVLVVGISGVALIVEER | -1.1
24 | HMNAIYKFVLGMIGKRSGVVTTLPSKKQVEFQANMLAEKFMQNGIDPNALKSPEQVKNVLANIDQ | -1.13
25 | HMNALVAKYKQGVTEEQQQGQGIIIIKRVVVRDQEAWVYEKKIFDWGGVSYFRDKQRITASTFNQETAL | -2.79
26 | HMNAQLTTQEAADLLNVSRPHLVKLLEDGELPFLRTGKHRRVRLADLLQFKNAREQASVQAMDELSRQAQ | -0.103
27 | HMNARSTSYSDFIARVDKDEVASVRLDGETVTYQAADGTTYTTVKPESDPIAERLIAKGIEVNVVRQ | -0.348
28 | HMNASITVPDVRNLTVKQASEQLLASGFTPIPYAATKDGVGNDIVYAQDPPPSVLARSGDQITITYNPA | 0.0994
